Data: the DeepSol protein solubility set

assay: soluble on expression in E. coli; label from the status in PepcDB or PDB records

| Sequence | soluble on expression in E. coli |
| --- | --- |
| MAMLAYQVSKSIEINKSQSEIIDYLKDFKNWPEWSPWIILEPSCELTYSDNQGHVGAGYQWNGQRIGTGAVVLESTQEHRLDMELHFFRPIKSHGKVTLIVTPSQDGCTVEWQMQSRVPWYLFFLKTMFKSMVEMDYDRGLKMLKSQLETGQILSQLSEIGTRHQDLIHYVGLQGSGTIPELGPIMKKQTQRLYELMQKESLPVSGELFCYYLSMDMKLGHFEFVTCLPVSEMVEVPNGFVFGTIPACETFVIEHKGDYQFLGNAWSLGMNLTRQNGIKVKSKPLGIERYLNNPNETPKAGLRTEVILFKKLEHHHHHH | soluble |
| MAMMAKHQAVKKIFDQIATKYDLIDTIISLGLDQHWRRVLVSSLGLREGMRCLDCGAGSGKVTELIYFRCGGCDVTALDITDSMFNPELKKYVKFVVSPAESLPFPDASFDRVSSAFLTRNLADIDRYFAEVYRVLRPGGVFVNMDIYNPTRPVISEFFSLYFYRFVPFFGNRATGSKNYTYLANTVKYFHRPSVISQKLADRGFSVEATDLFFGAVYLHRSVKPEGRGLEHHHHHH | not soluble |
| MAMPEKSSDVKPTEECGSFPEIIELNVGGQVYITRYPTLISIPGSRLWEMFSVKNPCSLIQDNKGRFFIDRDGFLFRYVLDYMRDMQVVLPDHFPECGRLHREAEYFKLPELAKMLAPKMNKLNSIGNDSCPIDLEELSPSIDTTFNFSSTNSIHISGPDNPMVLRAAPGSELKKAGFITIGYRGSYTLGRDSQADAKFRRVARIMVCGKISLAKEVFGDTLNESRDPDRPPERYTSRYYLKFTFLEQAFDKLADAGFHMVACNSTGTCTVTHDQTDDRIWTSYTEYVFYRE | soluble |
| MANFQATIHSRPLSPEFMTQARRPASTIQAVLTNLREKISLQSILPGARLTEEELVDNYSIPRAMAREVLAVLEDRGIVRRIPNKGAVVAHVDMQWVYHYYDAREALDGMMVRLAARQTRPEDWADLVEQFGEPFQKALETGDVDRLISLIETFRNRLQTAANNPVLSDLAERIHERIRVVRQRVVLLPGRAETMVADYRAVLAALARSDAEEAEQLMGILNRNNRAAIQKYERYVV | not soluble |
| MANHAKLVDQEIYRSPVDDFELNYQEYLNDDDDDKQEAPVAVSKAPKGKGSNHGLGCRMKGLFDGFGGTDLKTIMRHLRRRRPKSGQALTNFMLSGNMEKVVDQHVKDFVHHFGRINPENGRIMGALRGNDFFNFGGLHNNLGNTGKVYLDNLMKGKCGKKRKVHKFKPIVVEELDFGAPKPAVPATPKAPVAPVAPVIPAPAVTPQKPKVDEPTYADSVSDFGLDFETEREKCLRNKTLFEDPEFPATAASLYYRTPPRDRIIWKRPGEIIANPQLITQGESRFDVKQGALGDCWFLAALANITLYDALFYRIVPPNQSFTENYAGIFHFQFWHYGKWVDVVVDDRLPTVNNQLYYLHSADNTEFWSALVEKAYAKLHGGYENLDGGTTAEALEDFTGGLTEYFDLRKSEKAAVLAALVKGMEMGSLFGCSIDADANIKEAQLRNGLVCGHAYSITAIHSITYYGEDTTLLRLRNPWGNEKEWNGAWSDGSSEWSKIDEATKKQIDVQFARDGEFWMSFEDFFSNFTQMEVCNLTAEIFDEIAEMTGVNRATETVEEEHQWHEIMEDGEWSSKHSWRLQQQPIYLPQEPSILHFLHSTTILY | not soluble |
| MANLGETLKQLRKQRRWTQEQLAEQLNVSRSQISKWENGSLLPDVQSLEKLCQLFNISADFLLGGETRQRELLREVTDMYGTADVHETVLAALDYLLHNQEMSEAMYALAKLPDKKRKHVETMIMTIVKECSELI | not soluble |
| MANMLKIAMLSTGEEVLHGDIVDSNAAWLAREFYQHGFSLAKRATVGDSLPALVEELMMLSFNSDVVIVNGGLGPTSDDITAQAAAQAAEQPLVLNADWLSQLEAFFIGRGRAMPESNRKQAMLPANAEVIDNPIGTACGFKMQINDCWFYFTPGVPKEFYKMVSEQILPNLQRQFPSVQGQQCSRLYTFGTSESSISDKLDKMHLPEGYTLGYRSYLPFIEVKLFGPDQDQERRLSLLKIIHSHLEQYVVSIDEPMLTYLGHVMAEKGLSLALAEQATQGGLSSWLLSDPNVEALAGHSWILSHRVSSELAHQDPLAAAFALAGATKDKCGTQMALVTGALKEDHVSVALSTPNGEWGQTVKFVRRFSAQEQKEWIATLAADMLLRYLTGRSMFVGYSAVERVKEMHLPSSVLN | not soluble |
| MANNVTFWFDVSCPFCWITSRWIKEVEKVRDISVTWVPMSLSVLNDGRDELPQDYKDKMKANWGPARVFAAVATEQPDRVDALYTAMGTRIHNQGEGGKQGYAAYDAIIADALEDVGLPASYAAVANTDTWDNALAAFHATAMDAVGNDVGTPVVKLGDTAFFGPVLTRIPRGEEAGMLFDASFQLAAYPHFFEIKRTRTESPQFD | not soluble |
| MANQLSTQQVKRDITTDPTLLTGADIKKYFDPQNLLSEKQVGQALALCKGRNLNPFANEVYIVAYKNNSGTDFSLIVSKEAFMKRAERCEGYDGFEAGITVMRNGEMVEIEGSLKLPDDVLIGGWAIVYRKDRSHRYKVTVDFNEYVKLDKYGNPRSTWKSMPGTMIRKTALVQTLREAFPDELGNMYTDIDGGDTFDAIKDVTPQETQEEVRARKMAQIEQYKQEQTQKQTQKADTSYPVDEVSEHTDDPVQGELLDGELEY | not soluble |
| MANTPGGGALIVGIEDKTGRIIGTELDIDWLRQGIFTRIDVAPDVVAKRVLGQRVLAIYVAAAAEPIEDTSDRLRWRVGDSCRPVDLEHHHHHH | not soluble |
| MANVYDLANELERAVRALPEYQAVLTAKSAIESDADAQVLWQDFLATQSKVQEMMQSGQMPSQEEQDEMSKLGEKIESNDLLKVYFDQQQRLSVYMSDIEKIVFAPMQDLM | not soluble |
| MANYPKELPAQTQSRQPGIESEMNPSPVYEYEDYKGADKLKGKVALITGGDSGIGRAVSVAYAKEGADIAIVYKDEHEDAEETKKRVEQEGVKCLLIAGDVGEEEFCNEAVEKTVKELGGLDILVNNAGEQHPKESIKDITSEQLHRTFKTNFYSQFYLTKKAIDYLKPGSAIINTTSINPYVGNPTLIDYTATKGAINAFTRTMAQALVKDGIRVNAVAPGPIWTPLIPATFPEETVAQFGQDTPMGRPGQPVEHVGCYVLLASD | not soluble |
| MAPAKSPRAWQRMLSGRRLDLLDPSPLDVEIADIAHGLARVARWNGQTRGDHAFTVAQHCLIVETIFCRMCPGATPDEMQMALLHDAPEYVIGDMISPFKSVVGGGYKTVEKRLEAAVHLRFGLPPHASRELKDRIKKADTVAAFFEATELAGFSTAEAQKFFGLPRGITRDMFDIIPLPSTEAQRLFIARFEAIETLRVTRTGGAV | soluble |
| MAPEAQVSVQPNFQQDKFLGRWFSAGLASNSSWLREKKAALSMCKSVVAPATDGGLNLTSTFLRKNQCETRTMLLQPAGSLGSYSYRSPHWGSTYSVSVVETDYDQYALLYSQGSKGPGEDFRMATLYSRTQTPRAELKEKFTAFCKAQGFTEDTIVFLPQTDKCMTEQAHHHHHH | soluble |
| MAPLVAVVSSPRARLFACFLRLGTQQAGPLQLHTGACCTAKNHYEVLVLGGGAGGITMATRMKRRVGAENVAIVEPSERHFYQPIWTLVGAGAKELSLSVRSTLSVIPSGVQWIQDRVAELNPDENCIRTDSGKEISYRYLIIALGIQLDYEKIKGLPEGFAYPKIGSNYSVKTVEKTWKALQDFKEGNALFTFPNTPVKCAGAPQKIMYLSEAYFRKTGKRPKANIIFNTALGTIFGVKKYADALQEIIRERDVSVNYKHNLIEVRPDKQEAVFEILDKPGETHVIPYEMLHVTPPMSAPDVLKRSPVADSAGWVDVDKETLQHKKYPNVFGIGDCTNLPTSKTAAAVAAQSGILDRTMCLIMKNQRPIKKYDGYTSCPLVTGYNRVILAEFDYTAQPLETFPFDQSKERITMYLMKADMMPFLYWNMMLRGYWGGPAFLRKLFHLGMN | not soluble |
| MAPMFGVSFDFDPDFSLLSNKTHKSRNPKPPVKLLPYRHGSNTTSSDSDSYTSDLDLPTMRLHHQWLRSPSRSKMCCSTGSSSISQSIHRA | not soluble |
| MAPPSQDVLKEIFNLYDEELDGKIDGTQVGDVARAAGLKPTQAMVTKAAGQEFKRKGEKRLTFEEWLPMYEQLAKEKEQGTYADFYEGLKVFDKEETGKILAAELRHILLALGERLSADEADELLKGVEDGEGMVKYEDFIKKVLAGPFPDQD | not soluble |
| MAPPTFADLGKSAKDLFNKGYNFGFLKIDSTTRAGDNKEVEFKSAASHNIGSGKLGGNLDVKYKIPQYGITLTEKWNTENQLGTVIEVNEQFGRGLKVTLDSLYAPHAGKRSGKVKLDWALPTARVTADVGVTSAPVINAAGVFSRDGWLIGAAATFDSSSNKLAATSLAFGHSTPQYTLHSFVINSTDFGASLYHKVASNVEVGTQLGWKVGGNGADYALATKYAPSRDLTVRAKVNSSSQVAVAATHSLSPALKLTLSTQFNLAANDAHKFGLGLEFDPSN | not soluble |
| MAQAEEINVATVNNGDMIIMQKLSSAWEKETGNKINWIVLEENVLRERVTTDIATNGGQFDIMTIGGYEAPIWGKQGWLAPVDDLGDDYDYADLLDPIKKGLTVDGKLYAVPFYTESSFTLYRKDLFDAAGLKMPDNPTYDQIKDFAAKLTDKSKQQYGICLRGKPGWGENMAFLGTMINTYGGRWFDMDWKPQLTSAPWKKAIADYVALMTSYGPPGAAANGFNENQTLFSSGRCAMWIDATSAAGRVYDPKQSQVADKTGFTRAPVEVTPNGSSWSWSWNLAIPNSTKKLETAKSFVKWATSKAYVKTVGESEGWVAVPPGTRKSTYELPEYKKAAPFADTVLKAIMSADPSKPTKDPVPYTGVQFVAIPEFQSIGTVVGQQIAAALSGQQTVDAALEGAQKQVERDMTRAGYIK | not soluble |
| MAQASPPRPERVLGASSPEARPAQEALLLPTGVFQVAEKMEKRTCALCPKDVEYNVLYFAQSENIAAHENCLLYSSGLVECEDQDPLNPDRSFDVESVKKEIQRGRKLKCKFCHKRGATVGCDLKNCNKNYHFFCAKKDDAVPQSDGVRGIYKLLCQQHAQFPIIAQSAKFSGVKRKRGRKKPLSGNHVQPPETMKCNTFIRQVKEEHGRHTDATVKVPFLKKCKEAGLLNYLLEEILDKVHSIPEKLMDETTSESDYEEIGSALFDCRLFEDTFVNFQAAIEKKIHASQQRWQQLKEEIELLQDLKQTLCSFQENRDLMSSSTSISSLSY | not soluble |
| MAQDGDRHHIFVSAPPPPPPSSSIPAPSQPNRLEKEPLIDEETDMIDESRATYWKGCEFLKASGLYSSKCELV | not soluble |
| MAQMYFYYSAMNAGKSTTLLQSSFNYQERGMTPVIFTAALDDRYGVGKVSSRIGLQSDAHLFRPDTNLYQEIAALHEVEKRHCILIDECQFLSKEQVYQLTEVVDKLHIPVLCYGLRTDFLGELFEGSKYLLSWADKLVELKTICHCGRKANMVIRTDEHGVAIKEGDQVAIGGNDRYVSVCRQHYKEALGKLEHHHHHH | soluble |
| MAQQHNDWADITSLDTFPKVLQHNAKHWPEQVAMREKEFGIWREFTWQDYENRVKWMALALQDLGIGEQDVVGLLGDNRPEWVWGELAAHAIKGYSLGIYQDSMHEEVAYLINYAKAKVVIAEDEEQCDKLLELGDEIPSVEYIIYCDPRGMRKYDDPRLIDVEQVYKKGQLIDKADPDKYLNMVAATKGSDLSILCTTSGTTSKPKLAQLHSGTFLDHCAAYLRADPRSPGDNYVSVLPLPWIMEQVYVVGQALISRQIVNFVEEQETMMSDLREIGPNFVLLAPRVWENIVADVSARMMDSTPFKQKMYKLGMSLANKALDQGKRSKLAEWILLRA | not soluble |
